{"source": "the supplement of paper PMC10567573", "parents": {"B1": {"name": "KIAA0774 (parent)", "chain": "FEDEVKRLGWQQQAELQELEERLQ"}}}
{"variants_of": "B1", "experiment": "protein stability index of a GFP-peptide fusion (GPS, HEK-293T) (PSI 1-6); higher = more stable", "conditions": "c terminus: a fixed tail appended"}
{"variant": "FEDEVKRLGWQQQAELQPLEERLQ", "note": "[E18P]", "protein stability index": 4.72}
{"variant": "FEDEVKRLGWQQQAELQALEERLQ", "note": "[E18A]", "protein stability index": 3.84}
{"variant": "FEDEVKRLGWQQQAELQQLEERLQ", "note": "[E18Q]", "protein stability index": 3.91}
{"variant": "FEDEVKRLGWQQQAELQDLEERLQ", "note": "[E18D]", "protein stability index": 4.61}
{"variant": "FEDEVKRLGWQQQAELQILEERLQ", "note": "[E18I]", "protein stability index": 1.74}
{"variant": "FEDEVKRLGWQQQAELQGLEERLQ", "note": "[E18G]", "protein stability index": 4.68}
{"variant": "FEDEVKRLGWQQQAELQCLEERLQ", "note": "[E18C]", "protein stability index": 3.17}
{"variant": "FEDEVKRLGWQQQAELQNLEERLQ", "note": "[E18N]", "protein stability index": 3.94}
{"variant": "FEDEVKRLGWQQQAELQSLEERLQ", "note": "[E18S]", "protein stability index": 4.7}
{"variant": "FEDEVKRLGWQQQAELQHLEERLQ", "note": "[E18H]", "protein stability index": 3.37}
{"variant": "FEDEVKRLGWQQQAELQMLEERLQ", "note": "[E18M]", "protein stability index": 2.89}
{"variant": "FEDEVKRLGWQQQAELQKLEERLQ", "note": "[E18K]", "protein stability index": 4.41}
{"variant": "FEDEVKRLGWQQQAELQYLEERLQ", "note": "[E18Y]", "protein stability index": 2.69}
{"variant": "FEDEVKRLGWQQQAELQWLEERLQ", "note": "[E18W]", "protein stability index": 2.4}
{"variant": "FEDEVKRLGWQQQAELQFLEERLQ", "note": "[E18F]", "protein stability index": 2.13}
{"variant": "FEDEVKRLGWQQQAELQTLEERLQ", "note": "[E18T]", "protein stability index": 4.47}
{"variant": "FEDEVKRLGWQQQAELQRLEERLQ", "note": "[E18R]", "protein stability index": 2.74}
{"variant": "FEDEVKRLGWQQQAELQVLEERLQ", "note": "[E18V]", "protein stability index": 3.84}
{"variant": "FEDEVKRLGWQQQAELQLLEERLQ", "note": "[E18L]", "protein stability index": 2.63}
{"variant": "FEDEVKRLGWQQQAELQELERRLQ", "note": "[E21R]", "protein stability index": 4.46}
{"variant": "FEDEVKRLGWQQQAELQELEGRLQ", "note": "[E21G]", "protein stability index": 4.76}
{"variant": "FEDEVKRLGWQQQAELQELEHRLQ", "note": "[E21H]", "protein stability index": 4.41}
{"variant": "FEDEVKRLGWQQQAELQELEFRLQ", "note": "[E21F]", "protein stability index": 4.07}
{"variant": "FEDEVKRLGWQQQAELQELEQRLQ", "note": "[E21Q]", "protein stability index": 4.67}
{"variant": "FEDEVKRLGWQQQAELQELEKRLQ", "note": "[E21K]", "protein stability index": 4.76}
{"variant": "FEDEVKRLGWQQQAELQELEARLQ", "note": "[E21A]", "protein stability index": 4.69}
{"variant": "FEDEVKRLGWQQQAELQELEMRLQ", "note": "[E21M]", "protein stability index": 4.32}
{"variant": "FEDEVKRLGWQQQAELQELELRLQ", "note": "[E21L]", "protein stability index": 4.71}
{"variant": "FEDEVKRLGWQQQAELQELEDRLQ", "note": "[E21D]", "protein stability index": 4.27}
{"variant": "FEDEVKRLGWQQQAELQELEPRLQ", "note": "[E21P]", "protein stability index": 4.51}
{"variant": "FEDEVKRLGWQQQAELQELEIRLQ", "note": "[E21I]", "protein stability index": 3.79}
{"variant": "FEDEVKRLGWQQQAELQELECRLQ", "note": "[E21C]", "protein stability index": 4.38}
{"variant": "FEDEVKRLGWQQQAELQELENRLQ", "note": "[E21N]", "protein stability index": 3.17}
{"variant": "FEDEVKRLGWQQQAELSELEERLQ", "note": "[Q17S]", "protein stability index": 4.75}
{"variant": "FEDEVKRLGWQQQAELWELEERLQ", "note": "[Q17W]", "protein stability index": 2.31}
{"variant": "FEDEVKRLGWQQQAELGELEERLQ", "note": "[Q17G]", "protein stability index": 5.2}
{"variant": "FEDEVKRLGWQQQAELFELEERLQ", "note": "[Q17F]", "protein stability index": 3.98}
{"variant": "FEDEVKRLGWQQQAELLELEERLQ", "note": "[Q17L]", "protein stability index": 4.54}
{"variant": "FEDEVKRLGWQQQAELNELEERLQ", "note": "[Q17N]", "protein stability index": 5.34}
{"variant": "FEDEVKRLGWQQQAELPELEERLQ", "note": "[Q17P]", "protein stability index": 4.91}
{"variant": "FEDEVKRLGWQQQAELTELEERLQ", "note": "[Q17T]", "protein stability index": 4.78}
{"variant": "FEDEVKRLGWQQQAELDELEERLQ", "note": "[Q17D]", "protein stability index": 3.55}
{"variant": "FEDEVKRLGWQQQAELIELEERLQ", "note": "[Q17I]", "protein stability index": 4.25}
{"variant": "FEDEVKRLGWQQQAELRELEERLQ", "note": "[Q17R]", "protein stability index": 4.71}
{"variant": "FEDEVKRLGWQQQAELMELEERLQ", "note": "[Q17M]", "protein stability index": 4.57}
{"variant": "FEDEVKRLGWQQQAELKELEERLQ", "note": "[Q17K]", "protein stability index": 4.88}
{"variant": "FEDEVKRLGWQQQAELCELEERLQ", "note": "[Q17C]", "protein stability index": 4.01}
{"variant": "FEDEVKRLGWQQQAELVELEERLQ", "note": "[Q17V]", "protein stability index": 4.51}
{"variant": "FEDEVKRLGWQQQAELAELEERLQ", "note": "[Q17A]", "protein stability index": 4.22}
{"variant": "FEDEVKRLGWQQQAELYELEERLQ", "note": "[Q17Y]", "protein stability index": 3.26}
{"variant": "FEDEVKRLGWQQQAELHELEERLQ", "note": "[Q17H]", "protein stability index": 4.34}
{"variant": "FEDEVKRLGWQQQAELEELEERLQ", "note": "[Q17E]", "protein stability index": 3.12}
{"variant": "FEDEVKRLGWQQQAEVQELEERLQ", "note": "[L16V]", "protein stability index": 4.86}
{"variant": "FEDEVKRLGWQQQAETQELEERLQ", "note": "[L16T]", "protein stability index": 5.08}
{"variant": "FEDEVKRLGWQQQAEYQELEERLQ", "note": "[L16Y]", "protein stability index": 4.13}
{"variant": "FEDEVKRLGWQQQAEWQELEERLQ", "note": "[L16W]", "protein stability index": 3.93}
{"variant": "FEDEVKRLGWQQQAELQEMEERLQ", "note": "[L19M]", "protein stability index": 4.42}
{"variant": "FEDEVKRLGWQQQAELQEHEERLQ", "note": "[L19H]", "protein stability index": 4.08}
{"variant": "FEDEVKRLGWQQQAELQETEERLQ", "note": "[L19T]", "protein stability index": 4.65}
{"variant": "FEDEVKRLGWQQQAELQEWEERLQ", "note": "[L19W]", "protein stability index": 3.92}
{"variant": "FEDEVKRLGWQQQAELQEFEERLQ", "note": "[L19F]", "protein stability index": 4.12}
{"variant": "FEDEVKRLGWQQQAELQEPEERLQ", "note": "[L19P]", "protein stability index": 5.42}
{"variant": "FEDEVKRLGWQQQAELQECEERLQ", "note": "[L19C]", "protein stability index": 4.43}
{"variant": "FEDEVKRLGWQQQAELQEREERLQ", "note": "[L19R]", "protein stability index": 3.68}
{"variant": "FEDEVKRLGWQQQAELQEGEERLQ", "note": "[L19G]", "protein stability index": 5.4}
{"variant": "FEDEVKRLGWQQQAELQEIEERLQ", "note": "[L19I]", "protein stability index": 4.27}
{"variant": "FEDEVKRLGWQQQAELQEEEERLQ", "note": "[L19E]", "protein stability index": 5.22}
{"variant": "FEDEVKRLGWQQQAELQEVEERLQ", "note": "[L19V]", "protein stability index": 4.53}
{"variant": "FEDEVKRLGWQQQAELQEAEERLQ", "note": "[L19A]", "protein stability index": 3.48}
{"variant": "FEDEVKRLGWQQQAELQEQEERLQ", "note": "[L19Q]", "protein stability index": 4.17}
{"variant": "FEDEVKRLGWQQQAELQEKEERLQ", "note": "[L19K]", "protein stability index": 3.24}
{"variant": "FEDEVKRLGWQQQAELQEYEERLQ", "note": "[L19Y]", "protein stability index": 4.14}
{"variant": "FEDEVKRLGWQQQAELQESEERLQ", "note": "[L19S]", "protein stability index": 4.39}
{"variant": "FEDEVKRLGWQQQAELQEDEERLQ", "note": "[L19D]", "protein stability index": 5.22}
{"variant": "FEDEVKRLGWQQQAELQENEERLQ", "note": "[L19N]", "protein stability index": 5.2}
{"variant": "FEDEVKRLGWQQQAELQELHERLQ", "note": "[E20H]", "protein stability index": 4.29}
{"variant": "FEDEVKRLGWQQQAELQELYERLQ", "note": "[E20Y]", "protein stability index": 3.71}
{"variant": "FEDEVKRLGWQQQAELQELNERLQ", "note": "[E20N]", "protein stability index": 4.32}
{"variant": "FEDEVKRLGWQQQAELQELVERLQ", "note": "[E20V]", "protein stability index": 3.49}
{"variant": "FEDEVKRLGWQQQAELQELTERLQ", "note": "[E20T]", "protein stability index": 3.53}
{"variant": "FEDEVKRLGWQQQAELQELIERLQ", "note": "[E20I]", "protein stability index": 3.74}
{"variant": "FEDEVKRLGWQQQAELQELDERLQ", "note": "[E20D]", "protein stability index": 4.84}
{"variant": "FEDEVKRLGWQQQAELQELLERLQ", "note": "[E20L]", "protein stability index": 3.38}
{"variant": "FEDEVKRLGWQQQAELQELPERLQ", "note": "[E20P]", "protein stability index": 4.8}
{"variant": "FEDEVKRLGWQQQAELQELFERLQ", "note": "[E20F]", "protein stability index": 2.51}
{"variant": "FEDEVKRLGWQQQAELQELKERLQ", "note": "[E20K]", "protein stability index": 4.4}
{"variant": "FEDEVKRLGWQQQAELQELMERLQ", "note": "[E20M]", "protein stability index": 3.81}
{"variant": "FEDEVKRLGWQQQAELQELCERLQ", "note": "[E20C]", "protein stability index": 4.34}
{"variant": "FEDEVKRLGWQQQAELQELGERLQ", "note": "[E20G]", "protein stability index": 3.05}
{"variant": "FEDEVKRLGWQQQAELQELRERLQ", "note": "[E20R]", "protein stability index": 3.87}
{"variant": "FEDEVKRLGWQQQAELQELSERLQ", "note": "[E20S]", "protein stability index": 4.49}
{"variant": "FEDEVKRLGWQQQAELQELWERLQ", "note": "[E20W]", "protein stability index": 3.05}
{"variant": "FEDEVKRLGWQQQAELQELAERLQ", "note": "[E20A]", "protein stability index": 4.08}
{"variant": "FEDEVKRLGWQQQAELQELQERLQ", "note": "[E20Q]", "protein stability index": 3.9}
